Literature values in publication PMC7221163.

Biological target: insulin receptor (HIR) (Homo sapiens) (UniProt P06213)
Experiment: radioreceptor assay

insulin, sequence (P01308 90-110): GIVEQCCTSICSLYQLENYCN

- Kd: 1.2 nM
Substance: insulin (from UniProt P01308)
